Results as given in article PMC9122904, “Insights into the client protein release mechanism of the ATP-independent chaperone Spy” (Nature Communications, 2022).

How the values were obtained:
Assay in all cases: BLI; Octet RED96; client biotinylated and loaded on streptavidin sensors; Spy or Spy variant in solution at 0.25, 0.5, 1, 1.5 and 2 μM; 40 mM HEPES, 150 mM NaCl, pH 7.5; Kd calculated as koff/kon
Details in all cases: both partners purified
Spy_(29-124) K75D = target: T1, Spy_(29-124) K75D (UniProt P77754 52-147, K75D)
T1 construct: source: E. coli BL21 (DE3), purified (Ni-NTA, cation exchange, SEC); not shown: His6, N-terminal, cleaved; SUMO, N-terminal, cleaved
T1 sequence (looked up): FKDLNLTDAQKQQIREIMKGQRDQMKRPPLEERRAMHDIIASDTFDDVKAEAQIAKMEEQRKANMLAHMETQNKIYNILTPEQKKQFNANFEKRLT

Spy_(27-124) = target: T2, Spy_(27-124) (UniProt P77754 50-147)
T2 construct: source: E. coli BL21 (DE3), purified (Ni-NTA, cation exchange, SEC); not shown: His6, N-terminal, cleaved; SUMO, N-terminal, cleaved
T2 sequence (looked up): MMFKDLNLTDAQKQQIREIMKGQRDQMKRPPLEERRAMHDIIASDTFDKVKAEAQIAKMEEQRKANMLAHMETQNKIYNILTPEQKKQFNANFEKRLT
Method in brief: (§1)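 Biolayer interferometry used an Octet RED96: client proteins biotinylated with EZ-link NHS-biotin (1:1 molar ratio) were loaded on streptavidin sensors, dipped into 40 mM HEPES, 150 mM NaCl, pH 7.5 containing Spy protein at 0.25, 0.5, 1, 1.5 and 2 μM, then moved to Spy-free buffer. Wavelength-shift association and dissociation curves were fitted in SigmaPlot 12.0, giving observed association rate and koff. kon came from observed rate versus Spy concentration; Kd was koff/kon.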

Spy_(29-127) = target: T3, Spy_(29-127) (UniProt P77754 52-150)
T3 construct: Spy chaperone, residues 29-127; source: E. coli BL21 (DE3), purified (Ni-NTA, cation exchange, SEC); not shown: His6, N-terminal, cleaved; SUMO, N-terminal, cleaved
T3 sequence (looked up): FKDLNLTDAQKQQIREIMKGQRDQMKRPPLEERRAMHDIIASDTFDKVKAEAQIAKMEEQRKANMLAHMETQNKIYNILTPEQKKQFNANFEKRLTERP
Method in brief: as §1

Spy_(21-130) = target: T4, Spy_(21-130) (UniProt P77754 44-153)
T4 construct: Spy chaperone, residues 21-130; source: E. coli BL21 (DE3), purified (Ni-NTA, cation exchange, SEC); not shown: His6, N-terminal, cleaved; SUMO, N-terminal, cleaved
T4 sequence (looked up): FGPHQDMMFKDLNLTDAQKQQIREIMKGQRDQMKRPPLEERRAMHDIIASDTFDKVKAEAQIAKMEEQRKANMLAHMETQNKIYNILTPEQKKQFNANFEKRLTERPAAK
Method in brief: as §1

Spy_(21-127) = target: T5, Spy_(21-127) (UniProt P77754 44-150)
T5 construct: Spy chaperone, residues 21-127; source: E. coli BL21 (DE3), purified (Ni-NTA, cation exchange, SEC); not shown: His6, N-terminal, cleaved; SUMO, N-terminal, cleaved
T5 sequence (looked up): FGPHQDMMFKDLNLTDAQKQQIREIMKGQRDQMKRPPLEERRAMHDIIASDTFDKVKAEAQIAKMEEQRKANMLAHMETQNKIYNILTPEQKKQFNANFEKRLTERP
Method in brief: as §1

Spy_(21-124) = target: T6, Spy_(21-124) (UniProt P77754 44-147)
T6 construct: source: E. coli BL21 (DE3), purified (Ni-NTA, cation exchange, SEC); not shown: His6, N-terminal, cleaved; SUMO, N-terminal, cleaved
T6 sequence (looked up): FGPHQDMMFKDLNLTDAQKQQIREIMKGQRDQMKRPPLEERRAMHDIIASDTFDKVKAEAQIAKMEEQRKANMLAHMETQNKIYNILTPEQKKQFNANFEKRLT
Method in brief: as §1

Spy_(24-127) = target: T7, Spy_(24-127) (UniProt P77754 47-150)
T7 construct: Spy chaperone, residues 24-127; source: E. coli BL21 (DE3), purified (Ni-NTA, cation exchange, SEC); not shown: His6, N-terminal, cleaved; SUMO, N-terminal, cleaved
T7 sequence (looked up): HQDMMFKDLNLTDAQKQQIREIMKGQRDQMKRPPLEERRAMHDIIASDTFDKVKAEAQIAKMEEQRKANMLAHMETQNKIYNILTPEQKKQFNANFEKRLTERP
Method in brief: as §1

Spy_(27-130) = target: T8, Spy_(27-130) (UniProt P77754 50-153)
T8 construct: Spy chaperone, residues 27-130; source: E. coli BL21 (DE3), purified (Ni-NTA, cation exchange, SEC); not shown: His6, N-terminal, cleaved; SUMO, N-terminal, cleaved
T8 sequence (looked up): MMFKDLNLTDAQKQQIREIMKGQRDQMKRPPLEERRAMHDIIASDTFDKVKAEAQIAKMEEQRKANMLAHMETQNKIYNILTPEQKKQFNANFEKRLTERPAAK
Method in brief: as §1

Kd (Spy_(29-124) K75D): 456 nM
koff (Spy_(27-124)): 0.089 s⁻¹
koff (Spy_(29-127)): 0.095 s⁻¹
koff (Spy_(21-130)): 0.461 s⁻¹
koff (Spy_(21-127)): 0.512 s⁻¹
koff (Spy_(21-124)): 0.487 s⁻¹
koff (Spy_(24-127)): 0.39 s⁻¹
koff (Spy_(27-130)): 0.092 s⁻¹
B1: Im7 H40W L53A I54A (natural protein)
chain: MELKNSISDYTEAEFVQLLKEIEKENVAATDDVLDVLLEWFVKITEHPDGTDAAYYPSDNRDDSPEGIVKEIKEWRAANGKPGFKQG
modifications: biotin (EZ-link NHS-biotin, 1:1 molar ratio of biotin to protein)
notes: Im7 (colicin E7 immunity protein) with H40W L53A I54A; Spy was made with an N-terminal His6-SUMO tag that was cleaved; also called Im7AAW; partially folded client; source: purified by a similar procedure to Spy
